Publication PMC4488448

Biological target: HER-2 (human (endogenous in SKBR3 and T47D)) (UniProt P04626)

Substance: eSrtA-conjugated cFRP5-DM1 (antibody)
- IC50 of killing of HER-2-overexpressing SKBR3 cells (luminescent cell viability assay; Fig 4A): 0.067 µg/mL

Substance: eSrtA-conjugated cFRP5-maytansine (antibody)
- IC50 of killing of HER-2-overexpressing SKBR3 cells (luminescent cell viability assay; Fig 4A): 0.0779 µg/mL
